The source of these data is paper PMC8421203 (Nucleic Acids Research, 2021).

For orientation: Kd means the concentration at which binding is half-saturated.

The target in data set [1] is Zebrafish PHF14PZP (278–487) (zebrafish). Nature of the data set: ITC. (In general: ITC needs no label: the signal is the heat of the interaction.)
Data set [2] addresses PHF14 PZP domain, 278-487. As to the kind of experiment: ITC. Particulars: reference: unmodified H3(1-15) peptide; sites T3.
Another data set is described as follows: Thermal shift assay. To be noted: 2 mg/ml protein, 5× Sypro Orange, 100 mM NaCl, 20 mM HEPES-Na pH 7.5, 25°C to 90°C at 0.5°C per minute. It counts as physicochemical.
The target in data set [3] is T1, Zebrafish PHF14PZP (278–487) (zebrafish, UniProt A0A286Y9D1 278-487).
T1 sequence: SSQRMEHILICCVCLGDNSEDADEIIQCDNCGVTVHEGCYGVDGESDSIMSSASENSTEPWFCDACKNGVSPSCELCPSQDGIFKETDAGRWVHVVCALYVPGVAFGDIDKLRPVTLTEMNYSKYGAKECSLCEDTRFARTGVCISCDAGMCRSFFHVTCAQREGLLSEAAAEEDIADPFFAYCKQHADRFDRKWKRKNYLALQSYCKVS
Nature of the data set: crystal structure.

For another data set, the target named is T2, PHF14PZP E301A (zebrafish, UniProt A0A286Y9D1 278-487, E301A).
T2 sequence: T1 sequence with E24A
Nature of the data set: ITC.

Changes are numbered by the printed parent chain.

Regarding “unmodified histone H3(1–15) peptide (from UniProt P68431 2-16)”, the Kd in data set [1] was found to be 12.7 µM. As for “histone H3 1-15 (from UniProt P68431) H3(1-15) T3ph peptide”, the KD entry in data set [2] is listed as “lost; reference 12.7”.

B1: H3(1–13)-PHF14PZP: chimeric protein: H3(1–13) fused to the N-terminus of PHF14PZP (aa 278–487) through an 'SGSGS' linker (protein)
chain: ARTKQTARKSTGGSGSGSSSQRMEHILICCVCLGDNSEDADEIIQCDNCGVTVHEGCYGVDGESDSIMSSASENSTEPWFCDACKNGVSPSCELCPSQDGIFKETDAGRWVHVVCALYVPGVAFGDIDKLRPVTLTEMNYSKYGAKECSLCEDTRFARTGVCISCDAGMCRSFFHVTCAQREGLLSEAAAEEDIADPFFAYCKQHADRFDRKWKRKNYLALQSYCKVS
modifications: left off: 10xHis-SUMO, N-terminal, cleaved
Take B1: the “positive Tm shift versus free state PHF14PZP” value in the data set “Thermal shift assay” is 3.2 °C. With ARTKQTARKSTGG [histone H3(1–13), as joined to PHF14PZP in the fusion protein], the binding result in data set [3] is listed as “binds”. Turning to ARTKQTARKSTGGKA [unmodified histone H3(1–15) peptide], the “fold decrease of affinity against wild-type PHF14PZP” value with PHF14PZP E301A is approximately 28 fold.
